Results published in article PMC8050300, “The role of S-nitrosylation of PFKM in regulation of glycolysis in ovarian cancer cells” (Cell Death & Disease, 2021).
Values joined by “and” are separate entries in the source; they are usually repeats but may differ in a detail not shown here. Identical values can stand only once.

B1: Phosphofructokinase (PFKM), endogenous (enzyme, human (endogenous in SKOV3 and OVCAR3), UniProt P08237-1 1-780, looked up)
chain: MTHEEHHAAKTLGIGKAIAVLTSGGDAQGMNAAVRAVVRVGIFTGARVFFVHEGYQGLVDGGDHIKEATWESVSMMLQLGGTVIGSARCKDFREREGRLRAAYNLVKRGITNLCVIGGDGSLTGADTFRSEWSDLLSDLQKAGKITDEEATKSSYLNIVGLVGSIDNDFCGTDMTIGTDSALHRIMEIVDAITTTAQSHQRTFVLEVMGRHCGYLALVTSLSCGADWVFIPECPPDDDWEEHLCRRLSETRTRGSRLNIIIVAEGAIDKNGKPITSEDIKNLVVKRLGYDTRVTVLGHVQRGGTPSAFDRILGSRMGVEAVMALLEGTPDTPACVVSLSGNQAVRLPLMECVQVTKDVTKAMDEKKFDEALKLRGRSFMNNWEVYKLLAHVRPPVSKSGSHTVAVMNVGAPAAGMNAAVRSTVRIGLIQGNRVLVVHDGFEGLAKGQIEEAGWSYVGGWTGQGGSKLGTKRTLPKKSFEQISANITKFNIQGLVIIGGFEAYTGGLELMEGRKQFDELCIPFVVIPATVSNNVPGSDFSVGADTALNTICTTCDRIKQSAAGTKRRVFIIETMGGYCGYLATMAGLAAGADAAYIFEEPFTIRDLQANVEHLVQKMKTTVKRGLVLRNEKCNENYTTDFIFNLYSEEGKGIFDSRKNVLGHMQQGGSPTPFDRNFATKMGAKAMNWMSGKIKESYRNGRIFANTPDSGCVLGMRKRALVFQPVAELKDQTDFEHRIPKEQWWLKLRPILKILAKYEIDLDTSDHAHLEHITRKRSGEAAV
notes: PFKM, muscle isoform of phosphofructokinase 1, human, endogenous in ovarian cancer cells; also called PFK1 (M isoform); source: endogenous, SKOV3 (control, OE-NOS1) and OVCAR3 cell lysate
B2: Flag-tagged WT human PFK1 (M isoform) (enzyme, UniProt P08237-1 1-780, looked up)
chain: B1 chain
notes: human PFK1 (M isoform, PFKM) cDNA (ATCC, NCBI NP_000280.1) in the expression vector PCDNA3.1; the vector section is headed 'for ovarian cancer cells expression'; also called Flag-PFKM; Flag-PFKM-WT; source: SKOV3-PFKM-KO cells, transfected, in lysate

Biological target: the molecule itself
Experiment: non-reducing SDS-PAGE with western blot; cell extracts separated by non-reducing SDS-PAGE, blot for PFKM tetramer, dimer and monomer; SKOV3 control and OE-NOS1 cells, SKOV3 and OVCAR3 cells with GSNO (1 mM, 30 min) or PBS, SKOV3-PFKM-KO cells (with or without OE-NOS1) reconstituted with Flag-PFKM-WT or C351S

| Protein | stoichiometry N |
| --- | --- |
| B1 | 4 and 2 |
| B2 | 4 and 2 |
